In US20060286117A1, “Neuronally expressed stem cell factor modulates angiogenesis and neural stem cell migration to areas of brain injury” (priority 2003, published 2006):
Entries after “also recorded” stand apart in the source; their conditions may differ.

How the values were obtained:
BMVEC-b = experiment: Thymidine incorporation in BMVEC-b exposed to SCF; format: cell-based, bovine; details: basal medium
Experimental: (§1) After ECs (3×10^3/well) were adhered to 96-well gelatin-coated plates (BD Discovery Labware, Bedford, Mass.), the EC growth medium was replaced by SCF ([…]) (R&D Systems, Minneapolis, Minn.) suspended in treatment medium (basal medium with 0.1% BSA) for an additional 48 hr (HUVEC and HMVEC-d) or 72 hr (BMVEC-b) with renewal of medium at 24 hr intervals. ECs were cultured for 4 hr in 0.25 μCi of [^3H]thymidine (Amersham Pharmacia Biotech, Piscataway, N.J.) at the end. High molecular mass [^3H]-radioactivity was precipitated and counted.

HUVEC = experiment: Thymidine incorporation in HUVEC exposed to SCF; format: cell-based, human; details: basal medium, 48 hr
Experimental: as §1

HBMEC = experiment: Matrigel tube formation (EC differentiation) assay, HBMEC; format: cell-based, human
Experimental: After the Matrigel (BD Biosciences) formed a solid gel in 24-well plates, serum-starved BMVEC-b cells were seeded on the gel surface at 10^5 cells per well and cultured in treatment medium in the presence or absence of SCF (20 ng/ml). Primary HBMEC were placed on the gel directly at 24×10^3 per well. Tubular formation was observed using an inverted phase contrast microscope, and images were captured at 4 and 18 hr after cell seeding. Each experiment was repeated two or three times.

[1] = system: c-Kit, MAPK and PI3K/Akt pathways in HUVEC; experiment: Immunoblot of SCF/c-Kit signal transduction, HUVEC; format: cell-based, human
Experimental: (§2) Confluent-grown ECs were treated with 50 ng/ml of SCF for 5, 10, 15, and 30 min after 24 hr of serum starvation. The ECs were collected with RIPA lysis buffer (Upstate, Charlottesville, Va.) containing 50 mM NaF, 1 mM Na3VO4, […], and Protease Inhibitor Cocktail (Roche). The antibodies were purchased from Cell Signaling Technology, Inc. (Beverly, Mass.) or as mentioned otherwise. All the primary antibodies were used in a 1:1000 dilution except for the anti-SCF antibody, which was used in a 1:2000 dilution. The primary antibodies were anti-phospho-c-Kit, anti-phospho-MEK1/2 and anti-MEK1/2, anti-phospho-p44/42 MAPK and anti-p44/42 MAPK, anti-phospho-SAPK/JNK and anti-SAPK/JNK, anti-phospho-p38 MAPK and anti-p38 MAPK, anti-phospho-Akt and anti-Akt, anti-phospho-mTOR and anti-mTOR, anti-phospho-4E-BP1 and anti-4E-BP1, anti-SCF and anti-VEGF (Chemicon, Temecula, Calif.), and anti-β-tubulin (Sigma). Re-blotting was done after membranes were stripped by re-blot kit (Chemicon). Tie2 detection in Matrigel plugs from the in vivo Matrigel assay was carried out by immunoprecipitation and immunoblotting. The gel plugs were carefully separated from muscle and skin and homogenized with RIPA lysis buffer. The resulting total tissue lysates ([…]) were immunoprecipitated with Tie2 antibody (Santa Cruz Biotechnology, Inc., Santa Cruz, Calif.) and then analyzed by immunoblot with Tie2 antibody (Zadeh et al. 2004 Am J Pathol 162:467-476).

[2] = system: c-Kit, MAPK and PI3K/Akt pathways in HBMEC; experiment: Immunoblot of SCF/c-Kit signal transduction, HBMEC; format: cell-based, human; details: SCF 50 ng/ml
Experimental: as §2

SVZ stem cells = experiment: In vivo SVZ cell tracking by ventricular DiI or GFP adenovirus before SCF injection; set-up: species or system mouse; details: seven days after SCF injection
Experimental: For labeling of neural progenitors in vivo, BrdU (Roche) was administrated intraperitoneally twice a day, at 8-hour intervals, for 14 days (50 mg/kg body weight). Twenty hour from the last BrdU injection, several animals were killed and their brains were sectioned for BrdU immunostaining. Intracerebral injections were administered to the remaining animals. Stereotaxic surgery was performed as described in the “freeze” injury, and the injections were given at the position of 1 mm anterior to the bregma, 1.5 mm lateral to the midline, and 2.5 mm ventral to the dura. Mice received a suspension of rmSCF (3 μg in 3 μl of PBS; R&D systems) or PBS through a Hamilton syringe. Each injection took 15 min. Seven days from the intracranial injection, the animals were killed and the brains were processed for BrdU immunohistochemical analysis. For ventricular injection of DiI (1,1′-dioctadecyl-6,6′-di(4-sulfophenyl)-3,3,3′,3′-tetrametylindocarbocyanine; Molecular Probes) or adenovirus expressing GFP, 2 μl of 0.2% DiI in DMSO or 2 μl of replication incompetent adenovirus (10^8 plaque-forming units per μl) (He, T. C. et al. 1998 PNAS USA 95:2509-2514) was injected 0.5 mm posterior and 0.7 mm lateral to bregma, and 2 mm below the dura matter into the lateral ventricle. […] Seven days after SCF injection, the brains were sectioned and analyzed for DiI or GFP distributions.

bMVEC-B cells [3] = experiment: bMVEC-B DNA synthesis by thymidine incorporation (Example 3); format: cell-based; details: rmSCF 1 ng/ml to 250 ng/ml, 72 hours
Experimental: To specifically confirm the pro-angiogenic effects of SCF in the brain, bMVEC-B cells were used. The cells were cultured in the presence of different concentrations of rmSCF (1 ng/ml to 250 ng/ml) or 0.1% BSA only medium for 72 hours. The rate of DNA synthesis was measured by thymidine incorporation.

bMVEC-B cells [4] = experiment: bMVEC-B tube formation on matrigel (Example 3); format: cell-based; details: vs SCF-absent control
Excerpt: Endothelial cell tube formation on extracellular matrix (ECM) is a commonly used in vitro model of EC differentiation and angiogenesis. We examined the SCF effects on the bMVEC-B cell tube formation.

[5] = SCF 50 ng/ml after serum starvation

B1: SCF: Stem cell factor protein (R&D Systems), ligand of the c-Kit receptor (protein)
chain: KEICGNPVTDNVKDITKLVANLPNDYMITLNYVAGMDVLPSHCWLRDMVIQLSLSLTTLLDKFSNISEGLSNYSIIDKLGKIVDDLVLCMEENAPKNIKESPKRPETRSFTPEEFFSIFNRSIDAFKDFMVASDTSDCVLSSTLGPEKDSRVSVTKPFMLPPVA
BMVEC-b proliferation increase (thymidine incorporation) (BMVEC-b; 1 ng of SCF per ml for 72 hr): approximately 6 fold | BMVEC-b proliferation increase (thymidine incorporation) (BMVEC-b; 10 ng of SCF per ml for 72 hr): ~7 fold | proliferation (thymidine incorporation) (BMVEC-b; BMVEC-b, 72 hr): stimulated proliferation in all three primary ECs in a dose-dependent manner | proliferation (thymidine incorporation) (HUVEC): stimulated proliferation in all three primary ECs in a dose-dependent manner | time to mature appearing capillary-like structures (HBMEC): ≤ 18 h | time to migration in Matrigel (HBMEC): ≤ 4 h | duration of p38 MAPK activation ([1]; SCF 50 ng/ml): over 30 min | phosphorylation of 4E-BP1 ([1]; SCF 50 ng/ml): increased phosphorylation of 4E-BP1 | phosphorylation of Akt ([1]; SCF 50 ng/ml): significantly enhanced | phosphorylation of MEK1/2 ([1]; SCF 50 ng/ml): dramatically increased | phosphorylation of p44/42 MAPK ([1]; SCF 50 ng/ml): dramatically increased | time of SAPK/JNK activation following SCF exposure ([1]; SCF 50 ng/ml): 10 to 15 min | duration of c-Kit auto-tyrosine-phosphorylation [1, 5]: 30 min | time of peak c-Kit auto-tyrosine-phosphorylation [1, 5]: 10 to 15 min | phosphorylation of Akt [2]: induced immediate phosphorylation | phosphorylation of SAPK/JNK [2]: could not induce phosphorylation | phosphorylation of c-Kit [2]: induced immediate phosphorylation | phosphorylation of p38 MAPK [2]: could not induce phosphorylation | phosphorylation of p44/42 MAPK [2]: induced immediate phosphorylation | DiI-labelled cells near the SCF injection site (SVZ stem cells; ventricular DiI): greater number of DiI positive cells; also recorded: significant numbers of DiI labelled cells | GFP-positive cells in the SCF-injected cortex (SVZ stem cells; ventricular GFP adenovirus): a large number of GFP-positive cells had migrated | bMVEC-B DNA synthesis (thymidine incorporation) (bMVEC-B cells [3]): stimulated DNA synthesis | bMVEC-B tube formation on matrigel (bMVEC-B cells [4]): enhanced bMVEC-B cell tube formation; also recorded: at much earlier time point and more completely
